As usually defined, the Km is the substrate concentration at which the rate is half of its maximum.

Results on two proteins are retold here after PMC4954775.

Changes are numbered by the printed parent chain. Names and notes keep the numbering of the source.

Substrate in the data set: Cc1cc(=O)oc2cc(O[C@@H]3O[C@@H](C(=O)O)[C@@H](O)[C@H](O)[C@H]3O)ccc12
Kind of data set: purified protein.

B1: α-L-iduronidase (IDUA) (Homo sapiens) (protein)
chain: APHLVHVDAARALWPLRRFWRSTGFCPPLPHSQADQYVLSWDQQLNLAYVGAVPHRGIKQVRTHWLLELVTTRGSTGRGLSYNFTHLDGYLDLLRENQLLPGFELMGSASGHFTDFEDKQQVFEWKDLVSSLARRYIGRYGLAHVSKWNFETWNEPDHHDFDNVSMTMQGFLNYYDACSEGLRAASPALRLGGPGDSFHTPPRSPLSWGLLRHCHDGTNFFTGEAGVRLDYISLHRKGARSSISILEQEKVVAQQIRQLFPKFADTPIYNDEADPLVGWSLPQPWRADVTYAAMVVKVIAQHQNLLLANTTSAFPYALLSNDNAFLSYHPHPFAQRTLTARFQVNNTRPPHVQLLRKPVLTAMGLLALLDEEQLWAEVSQAGTVLDSNHTVGVLASAHRPQGPADAWRAAVLIYASDDTRAHPNRSVAVTLRLRGVPPGPGLVYVTRYLDNGLCSPDGEWRRLGRPVFPTAEQFRRMRAAEDPVAAAPRPLPAGGRLTLRPALRLPSLLLVHVCARPEKPPGQVTRLRALPLTQGQLVLVWSDEHVGSKCLWTYEIQFSQDGKAYTPVSRKPSTFNLFVFSPDTGAVSGSYRVRALDYWARPGPFSDPVPYLEVPVPRGPPSPGNP
Turning to B1, the Km was 27.0 ± 2.3 µM.

B2: α-L-iduronidase (IDUA) (Homo sapiens; P533R) (protein)
chain: B1 chain with P506R
With B2, the Km is 35.3 ± 3.66 µM.
